# IntAct's records for PubMed 28007894
# B1: Serine/threonine/tyrosine-interacting protein (Homo sapiens), Q8WUJ0 (parent)
# chain: MEDVKLEFPSLPQCKEDAEEWTYPMRREMQEILPGLFLGPYSSAMKSKLPVLQKHGITHIICIRQNIEANFIKPNFQQLFRYLVLDIADNPVENIIRFFPMTKEFIDGSLQMGGKVLVHGNAGISRSAAFVIAYIMETFGMKYRDAFAYVQERRFCINPNAGFVHQLQEYEAIYLAKLTIQMMSPLQIERSLSVHSGTTGSLKRTHEEEDDFGTMQVATAQNG
# Variants of: B1
# Settings: with FBXW7, Q969H0-1
# FBXW7, Q969H0-1, sequence (Q969H0 whole entry): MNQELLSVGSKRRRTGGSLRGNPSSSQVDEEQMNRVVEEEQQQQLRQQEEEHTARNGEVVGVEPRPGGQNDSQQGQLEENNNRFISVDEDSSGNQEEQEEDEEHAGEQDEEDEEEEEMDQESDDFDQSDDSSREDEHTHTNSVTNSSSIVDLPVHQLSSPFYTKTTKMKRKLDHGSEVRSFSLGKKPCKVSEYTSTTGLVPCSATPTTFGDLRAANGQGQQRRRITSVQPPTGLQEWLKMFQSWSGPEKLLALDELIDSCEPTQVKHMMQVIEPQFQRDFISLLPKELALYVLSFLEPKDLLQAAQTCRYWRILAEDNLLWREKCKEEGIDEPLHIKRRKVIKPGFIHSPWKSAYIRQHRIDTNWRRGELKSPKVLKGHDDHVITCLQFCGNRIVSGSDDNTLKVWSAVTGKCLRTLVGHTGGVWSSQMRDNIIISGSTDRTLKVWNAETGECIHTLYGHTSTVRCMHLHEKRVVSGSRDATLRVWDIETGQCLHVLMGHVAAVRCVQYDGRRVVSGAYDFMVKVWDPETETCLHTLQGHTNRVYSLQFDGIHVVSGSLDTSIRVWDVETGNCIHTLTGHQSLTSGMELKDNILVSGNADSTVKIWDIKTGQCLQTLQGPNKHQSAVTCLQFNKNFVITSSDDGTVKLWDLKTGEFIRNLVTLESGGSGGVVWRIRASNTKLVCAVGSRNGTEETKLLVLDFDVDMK
row,Variant,effect of a mutation on the interaction
1,G120C,with no effect
